In series [1] the test system is S. aureus RN4850. The series is classed as cell-based.
A further series has as its target AIP-1. Kind of series: Competition ELISA (free native AIP against hapten-BSA coated plates). Format: binding, S. aureus. The note with it: AP4-BSA coated plates. (ELISA stands for enzyme-linked immunosorbent assay.)
The target of a further series is AIP-2. The series is described as above. Format: binding, S. aureus. To be noted: AP4-BSA coated plates.
The target in the next series is AIP-4. The description is as above. Format: binding, S. aureus. As for the experimental part:
(§1) The optimal concentrations of the AP4-BSA conjugate as well as of each mAb were determined. 96 well ELISA plates were coated with the appropriate amount of AP4-BSA conjugate respectively. The plates were blocked with 4% skim milk, washed and mAbs were added at the predetermined optimal concentration. The plates were washed and free antigen, i.e. the native AIPs 1-4, was added to the wells in a concentration series starting at 100 μM. The plate was incubated for 1 hour at 37° C., thoroughly washed, and goat anti-mouse-horseradish peroxidase (HRP) conjugate (Pierce, Rockford, Ill.) was added. After an incubation period of 1 hour at RT, the plate was thoroughly washed again and the HRP substrate (TMB substrate kit; Pierce) was added, the reaction was allowed to develop for 15 minute and stopped by the addition of 2 M H2SO4. The absorbance at 450 nm was read and the values plotted using GraFit (Erithacus Software Ltd). The free antigen concentration at which the absorbance value is 50% of the maximum absorbance was considered the Kd of the antibody for its antigen.
as §1, with “For the competition ELISA analysis, the optimal concentrations” for “The optimal concentrations”, “of the AP1-BSA, AP3-BSA, or AP4-BSA conjugate,” for “of the AP4-BSA conjugate”, “or AP4-BSA conjugate, as well” for “the AP4-BSA conjugate as well”, “amount of AP1-BSA, AP3-BSA, or AP4-BSA conjugate” for “amount of AP4-BSA conjugate”, “blocked with 4 v % skim milk,” for “blocked with 4% skim milk,”, “for 15 minutes and stopped” for “for 15 minute and stopped”

The target of a further series is AIP-3. The series is described as above. The series is classed as binding, S. aureus. As for the experimental part:
as §1
as §1, with “For the competition ELISA analysis, the optimal concentrations” for “The optimal concentrations”, “of the AP1-BSA, AP3-BSA, or AP4-BSA conjugate,” for “of the AP4-BSA conjugate”, “or AP4-BSA conjugate, as well” for “the AP4-BSA conjugate as well”, “amount of AP1-BSA, AP3-BSA, or AP4-BSA conjugate” for “amount of AP4-BSA conjugate”, “blocked with 4 v % skim milk,” for “blocked with 4% skim milk,”, “for 15 minutes and stopped” for “for 15 minute and stopped”

The test system of series [2] is S. aureus RN4850. Kind of series: Static biofilm analysis (crystal violet). The series is classed as cell-based. To be noted: antibody 0.2 mg/mL, FIG. 4C.
Series [3] has as its system agr QS system in S. aureus RN4850. The series is classed as cell-based.
In series [4] the test system is S. aureus RN4850, NRS168 and Wood 46. The series is classed as cell-based. The note with it: 24-hour growth period; FIG. 4B.
Series [5] concerns S. aureus RN4850. As to the kind of experiment: Passive immunization against lethal S. aureus challenge. Format: in vivo, SKH1 mice. The note with it: antibody i.p. 2 hours before 3×10^8 S. aureus RN4850 i.p.; FIG. 8. As for the experimental part:
FIG. 8 illustrate survival data obtained from passive immunization of mice with AP4-24H11 against S. aureus infection. […] The numbers in parenthesis show number of survivors/number per group. The log rank statistic, p=0.001; n=6 for each group.
S. aureus RN4850 were stored at −80° C. in 20% glycerol/BHI medium, thawed and grown on BHI-agar plates overnight, and three separate colonies sampled to inoculate 2 mL CYGP medium. The inoculum culture was maintained 1 hour at 35° C. without shaking, followed by shaking at 200 rpm for 3 hours. Aliquots of the freshly grown inoculum culture were transferred to 5 mL CYGP medium in 50 mL conical polypropylene tubes (1/20 dilution) followed by shaking at 200 rpm, 35° C. for 3 hours. The bacteria were pelleted by centrifugation at 3,000 rpm (1300×G) for 10 minutes, 4° C. […]
Mab AP4-24H11, isotype-matched control IgG (1 mg each) or DPBS was administered i.p. in DPBS to SKH1 mice (6-9 weeks old; 6 animals per treatment group) followed two hours later by 0.5 mL DPBS^− i.p. containing 3×10^8 S. aureus. The mice were monitored several times on the day of injection and twice each day on subsequent days, observing ambulation, alertness, response to handling and skin temperature measured by infrared thermometry (Raytek MiniTemp MT4) using a 1 cm diameter infrasternal skin site. […]

For a further series, the system named is S. aureus Wood 46. The series is classed as cell-based.
The subject of series [6] is S. aureus RN4850. Kind of series: Dermal infection model in mice (abscess formation). The note with it: for S. aureus-induced skin injury: flank injection.
Procedure: Additional control animals received 200 μL intradermal injections containing Cytodex beads or beads plus antibody. After injections were made the mice were monitored at least three times each day over a period of 4-7 days. At the conclusion of the monitoring period the mice were euthanized and tissues harvested for bacteriologic and histologic analysis.
SKH1 euthymic hairless mice, 6-8 weeks old were obtained from Charles River Laboratories and housed in the biocontainment vivarium for one week before use in experiments. […] Cytodex 1 beads (GE Healthcare 17-0448-01) were suspended (1 gram in 50 mL) in Dulbecco's Phosphate Buffered Saline without calcium/magnesium (Gibco) overnight at 20° C. The supernatant was decanted and the beads washed three times by suspension in DPBS and 1 G sedimentation followed by autoclaving (121° C., 15 psi, 15 minutes). Staphylococcus aureus RN4850 (AIP4) was grown from frozen stock (BHI+20% glycerol) on brain heart infusion agar plates 35° C. overnight. Three representative colonies were combined to inoculate 2 mL CYGP broth, and after overnight incubation without shaking, 0.25 mL of the culture was used to inoculate 5 mL of CYGP followed by incubation at 35° C., 200 rpm for 3 hours. The culture was centrifuged 1,300×G at 4° C. for 20 minutes, the supernatant poured off, and the bacterial pellet was suspended in 1 mL DPBS without calcium/magnesium. The SKH1 received 200 μL intradermal flank injections containing S. aureus (1×10^7 or 1×10^8 bacteria), 4 μL packed volume Cytodex beads, DPBS, anti-AIP4 antibody or control IgG (0.6 or 0.06 mg). Additional control animals received 200 μL intradermal injections containing Cytodex beads or beads plus antibody. After injections were made the mice were monitored at least three times each day over a period of 4-7 days. At the conclusion of the monitoring period the mice were euthanized and tissues harvested for bacteriologic and histologic analysis.
Subcutaneous injections of bacterial suspension or vehicle control were made in the flank of SKH1 hairless mice followed by close monitoring over seven days.
Another series concerns Jurkat cells. Kind of series: S. aureus supernatant-induced PARP cleavage (apoptosis), Western blot. Format: cell-based, Human. The note with it: 4 hours, FIG. 5.
Series [7] concerns S. aureus RN4850. Format: cell-based. The note with it: FIG. 3B.
Where [8] appears, read: AP4 Sups, competing hybridomas re-tested, average, read-out: AIP1 wt.
The mark [9] stands for this setting: selected AP4 mAbs, average of at least two measurements, read-out: Binding constant, AIP-1.
The mark [10] stands for this setting: selected AP4 mAbs, average of at least two measurements, read-out: Binding constant, AIP-2.
The mark [11] stands for this setting: AP4 Sups, AP4-BSA coated plates, competing hybridomas re-tested, average, read-out: AIP4 wt.
[12] abbreviates: selected AP4 mAbs, AP4-BSA coated plates, average of at least two measurements, read-out: Binding constant, AIP-4.
The mark [13] stands for this setting: selected AP4 mAbs, average of at least two measurements, read-out: Binding constant, AIP-3.

Where two headings read alike, the source gives them in different places.

B1: AP4-4-20: anti-AIP4 human scFv from phage display, expressed in E. coli; probably AP4-20, SEQ ID NO: 53 (protein, listed as Homo sapiens)
scFv: QVQLQQSGAGLLRPSETLSLTCGLYGGSFSGHYWNWIRQSPEKGLVWIGEITHSGTTNYNPSLKSRVITSVDTSKNQYSLKLSFVTPADTAVYYCARGDYYGYWYFDLWGRGTLVTVSSGGGGSGGGGSGGGGSQSVLTQPPSVPVAPGQKVTISCSGSSSNIGNNYVSWYQQLPGTAPKLLIYDTNKRPSGIPDRFAGSKSGTSATLGITGLQTGDEADYYCGTWDSSLSAGVFGGGTKLTVL
Consider B1, for which the “hemolysins secretion (α-hemolysin western analysis)” value in the series on S. aureus RN4850 [1] is given as “clear reduction in hemolysins secretion”.

B2: AP4-29E10: murine monoclonal antibody raised against AP4 lactone hapten (antibody, V domains shown)
VH: EVQLQQSGPELEKPGASVKISCKASGHSFTGYNMNWVKQSNDKSLEWIGNIAPYYGVTAYNQKFKGKATLTGDKSSSTAYMQLKSLASEDSAVYYCVLDTSGYASWGQGTLVTVSA
VL: DIVMTQATASLTVSLGQRATISCRASKSVSTSGYSYMHWYQQKPGQPPKLLIYLASNLESGVPARFSGSGSGTDFTLNIHPVEEEDAATYYCQHSREVPYTFGGGTKLELK
In the case of B2, the Kd at AIP-1 (setting [8]) is approximately 3000 nM; at AIP-1 (setting [9]), approximately 3000 nM; at AIP-2 (AP4 Sups, read-out: AIP2 wt), more than 25000 nM; at AIP-2 (setting [10]) it was more than 25000 nM; on AIP-4 (setting [11]), approximately 24 nM; at AIP-4 (AP4 Sups, tested 5 different times, read-out: AIP4 Kd, variability over 5 different tests) it was 2 to 110 nM. The Kd is approximately 24 nM at AIP-4 (setting [12]); more than 25000 nM on AIP-3 (AP4 Sups, read-out: AIP3 wt); more than 25000 nM on AIP-3 (setting [13]).

B3: AP4-24H11: murine anti-AIP-4 monoclonal antibody; VH SEQ ID NO: 20, VL SEQ ID NO: 148 (antibody, V domains shown)
VH: EVKPQESGPGLVKPSQSLSLTCTVTGYSITSNYAWNWIRQFPGNKLEWMGFISSYGTTTYNPSLKSRFSITRDTSKNQFFLQLHSVTIEDTGTYFCTREGDYWGQGTTLTVSS
VL: DIVMTQATLSLPVSLGDQASISCRSSQRLVPSNGNIYLHWFLQKPGQSPKLLIYKLSSRFSGVPDRFSGSGSGTDFTLKISRVESEDLGIYFCSQTTHVPYTFGGGTKLEIK
modifications: Murine
Take B3: in the series with S. aureus RN4850 [2], the static biofilm formation entry was “increased biofilm formation”. Besides, the Kd on AIP-1 (setting [8]) was approximately 5000 nM. Further, on AIP-1 (setting [9]), the Kd is approximately 5000 nM. In addition, in series [3], the “eta mRNA fold-change” value is −8.1±1 fold, the “hla mRNA fold-change” value is on record as −5.2±3.1 fold, the “rnaIII mRNA fold-change” value was −77±48 fold and the “saeR mRNA fold-change” value is listed as “+1.4±0.4 fold”. In [3], the “sarA mRNA fold-change” value is recorded as −2.1±0.6 fold and the “spa mRNA fold-change” value is recorded as “+5.7±3.6 fold”. In series [3] (RN4850), the “decrease of eta transcription” value was “≈ 10 fold”, the “elevation of spa transcription” value is 3 to 5 fold and the “suppression of hla transcription” value lay within 3 to 5 fold. In addition, in series [3] (RN4850, stationary growth phase), the “reduction of rnaIII transcriptional level” value was more than 50 fold. In addition, in [3] (RN4850, no significant changes), the “change in saeR transcription” value is not above 2 fold and the “change in sarA transcription” value is recorded as not above 2 fold. The Kd on AIP-2 (AP4 Sups, read-out: AIP2 wt) was more than 25000 nM. On AIP-2 (setting [10]), the Kd was more than 25000 nM. The “growth of S. aureus in presence of antibody” value in series [4] is “no significant growth changes”. For the same molecule, in the series with S. aureus RN4850 [5], the “survivors/number per group through the 8-day observation period” value is 6/6. In addition, in the series with S. aureus Wood 46, the “α-hemolysin production (Western blot)” value is on record as “notable decrease in α-hemolysin production”. In the series with S. aureus RN4850 [1], the “exoprotein expression/secretion (SDS-PAGE)” value is listed as “affects the expression and/or secretion of S. aureus exoproteins” and the “hemolysins secretion (α-hemolysin western analysis)” value is “clear reduction in hemolysins secretion”. In the series on S. aureus RN4850 [1] (20-24 hours), the “protein A expression (Western blot)” value is given as “significantly increased” and the “α-hemolysin expression (Western blot)” value is recorded as “reduce the α-hemolysin expression”. Moreover, the “condition of mice injected with PBS/Cytodex containing antibody, no bacteria” value in the series on S. aureus RN4850 [6] (0.6 mg antibody, occasional local induration, FIG. 7D) is “remained normal”. The “S. aureus-induced skin injury” value with S. aureus RN4850 [6] (10^8 bacteria with 0.06 mg antibody) is on record as “not protective”. Further, in the series on S. aureus RN4850 [6] (10^8 bacteria with 0.6 mg antibody, 7 day observation), the “S. aureus-induced skin injury” value is reported as “skin injury was abrogated”. Besides, the “PARP cleavage induced by RN4850 supernatant” value in the series on Jurkat cells (supernatant (1%) of culture grown with antibody) is “prevented RN4850 supernatant (1%)-induced PARP cleavage”. The “PARP cleavage induced by Wood 46 supernatant” value with Jurkat cells (supernatant of culture grown with antibody) is recorded as “partially inhibited the effect of Wood 46 supernatant”. The Kd on AIP-4 (setting [11]) is approximately 98 nM. Besides, the Kd at AIP-4 (setting [12]) is approximately 90 nM. Besides, the Kd on AIP-3 (AP4 Sups, read-out: AIP3 wt) is more than 25000 nM. Also, the Kd at AIP-3 (setting [13]) is more than 25000 nM. Moreover, in the series with S. aureus RN4850 [7], the “hemolytic activity of treated supernatant on blood agar plates” value was “no hemolytic activity was observed”.

These data come from patent US9394371B2, “Antibody-mediated disruption of quorum sensing in bacteria” (The Scripps Research Institute, priority 2007, dated 2016).
